Measured values reported in article PMC6920325.

B1: RNV-L7 (ssDNA)
DNA: GGACAGGACCACACCCAGCGCGGTCGGCGGGTGGGCGGGGGGAGAACGAGGTAGGGGTCAGGCTCCTGTGTGTCGCTTTGT

Target: LDL-R (human, UniProt P01130 22-788)
Test: ELONA

Sequence of LDL-R (P01130 22-788): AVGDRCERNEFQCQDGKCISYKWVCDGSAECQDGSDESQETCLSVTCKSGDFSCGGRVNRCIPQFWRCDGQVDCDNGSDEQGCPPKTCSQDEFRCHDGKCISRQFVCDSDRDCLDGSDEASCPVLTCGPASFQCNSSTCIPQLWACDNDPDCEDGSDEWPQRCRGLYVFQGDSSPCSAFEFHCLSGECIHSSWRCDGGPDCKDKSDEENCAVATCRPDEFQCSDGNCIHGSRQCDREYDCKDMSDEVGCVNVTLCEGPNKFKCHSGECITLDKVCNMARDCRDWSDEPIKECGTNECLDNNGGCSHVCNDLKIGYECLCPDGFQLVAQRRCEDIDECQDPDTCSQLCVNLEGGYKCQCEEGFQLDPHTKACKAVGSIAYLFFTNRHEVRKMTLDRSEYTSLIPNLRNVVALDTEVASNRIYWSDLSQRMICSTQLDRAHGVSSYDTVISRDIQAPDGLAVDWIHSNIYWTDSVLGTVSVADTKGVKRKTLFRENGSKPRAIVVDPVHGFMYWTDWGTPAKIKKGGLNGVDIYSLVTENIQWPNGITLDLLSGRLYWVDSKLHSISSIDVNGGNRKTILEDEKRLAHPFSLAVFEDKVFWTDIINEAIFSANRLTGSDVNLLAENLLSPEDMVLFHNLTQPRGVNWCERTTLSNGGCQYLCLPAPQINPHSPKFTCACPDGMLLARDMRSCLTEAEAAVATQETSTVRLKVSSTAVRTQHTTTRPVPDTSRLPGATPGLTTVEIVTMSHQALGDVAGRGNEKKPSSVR

Row | Binder | Kd [nM] | binding result
1 | B1 | 19.6 | –
2 | CGGTCGGCGGGTGGGCGGGGGGAGAACGAGGTAGGGGTCA (ssDNA) [RNV-L7 truncated] | – | no binding
